This is an account of results in the supplement of paper PMC9170038.

The data set concerns MS2 coat protein. The experiment in a line: apparent KD of MS2 coat protein; designed switch direction (-1 OFF switch, 1 ON switch): -1; higher = weaker reporter binding. The gist of the method: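 Three titration conditions were used: no input, 200 uM small-molecule ligand, and an oligonucleotide input. In each, SNAP-549-labelled MS2 coat protein was raised from 0.7 or 1.5 nM, doubling, to 3 µM over designed RNA switches transcribed on Illumina chips by stalled E. coli RNA polymerase. Curve fits of normalised cluster fluorescence gave values whose per-design median over clusters is the apparent KD.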

Setting [1] is: Eterna round: R95, input ligand: microRNA oligo, concentration not stated.
Where [2] appears, read: input ligand: microRNA oligo, concentration not stated.

Consider “GUAGAGUGAGGAUAUACGAGAUCGAAAGAUCAACGAUCCAAACAUGAGGAUCACCCAUGUAGAAGGCACUCUAC [Eli x2 4.008] (Eterna round: R97, puzzle: Exclusion 2)”, for which the “apparent KD of MS2 coat protein” value runs as follows: (input ligand: FMN 200 uM) 0.27 µM; (input ligand: none) 0.0271 µM.

As for “GUAUACGAUGAGGAUAUAUGAUAUCAAAGCAUCAUAGAAGGCAUCACAUGAGGAUCACCCAUGUGAUCUUCUUG [Mat - Exclusion 6 - JL Mod - D33] (Eterna round: R97, puzzle: Exclusion 6)”, the “apparent KD of MS2 coat protein” value (input ligand: FMN 200 uM) stood at 0.141 µM and the “apparent KD of MS2 coat protein” value (input ligand: none) turned out to be 0.0313 µM.

As for “GUAUCGUGAGGAUAUCAUGAUUGACUUAAUUUAUGUCAGCGUGAGAAGGCACAUGAGGAUCACCCAUGUGAUUA [Ex4 - 3 - 6] (puzzle: Exclusion 4)”, the “apparent KD of MS2 coat protein” value under setting [1] stood at 0.0205 µM.

Turning to “GUCACAUGGACAUAGGAUCACAUGAGGAUCACCCAUGUGACUAACAAGCUUUUUGCUCGUCUUAUGUCUAUGUGAAA [Stov1/16-A1] (Eterna round: R97, puzzle: Sensor, turn-off variant 1)”, the “apparent KD of MS2 coat protein” value is, setting by setting: (input ligand: FMN 200 uM) 0.0128 µM; (input ligand: none) 0.012 µM.

For “GUCAGACGAGGAUAUGAUCAAUAAUACAUGAGGAUCACCCAUGUAAUACUGAUCCAUGGAUCAGAAGGCGUCUGAC [E5/5-A4] (Eterna round: R97, puzzle: Exclusion 5)”, the “apparent KD of MS2 coat protein” value (input ligand: FMN 200 uM) stood at 0.0234 µM and the “apparent KD of MS2 coat protein” value (input ligand: none) was 0.0154 µM.

Turning to “GUCAGCUCGUCAGGAUAUACAUCACUGCUUCGGCAGUGUAUUAAGAUCACAUGAGGAUCACCCAUGUAGAAGGGACGAGCUGAU [ENG2/2-B2] (Eterna round: R96, puzzle: Exclusion NG 2)”, the “apparent KD of MS2 coat protein” value (input ligand: FMN 200 uM) stood at 0.322 µM, the “apparent KD of MS2 coat protein” value under setting [2] stood at 0.0184 µM and the “apparent KD of MS2 coat protein” value (input ligand: none) came out at 0.0258 µM.

As for “GUCAGCUCGUCAGGAUAUACAUGAGGAUCACCCAUGUGGUCAAUAGCAGCUUCGGCUGCAAUAAUGUAGAAGGGACGAGCUGAC [ENG2/8-E] (Eterna round: R96, puzzle: Exclusion NG 2)”, the “apparent KD of MS2 coat protein” value is, setting by setting: (input ligand: FMN 200 uM) 0.115 µM; under setting [2], 0.301 µM; (input ligand: none) 0.756 µM.

Consider “GUCAGCUCGUGAGGAUAUACAUGAGGAUCACCCAUGUGGUCAUUAGCAGCUUCGGCUGCAUUAAUGUAGAAGGCACGAGCUGAC [ENG2/8-A1] (Eterna round: R96, puzzle: Exclusion NG 2)”, for which the “apparent KD of MS2 coat protein” value turned out to be 0.635 µM (input ligand: FMN 200 uM), 0.69 µM under setting [2] and 1.14 µM (input ligand: none).

“GUCAUCAAACAUGGGUGUAACAUGAGGAUCACCCAUGUUAUCAAGUUUUUUGCUCGUCUUAUAAUAAGUUUGAUGAC [Antenna 13 - Jieux - Sensor, turn-off variant 1] (Eterna round: R97, puzzle: Sensor, turn-off variant 1)”: the “apparent KD of MS2 coat protein” value amounted to 0.0875 µM (input ligand: FMN 200 uM) and 0.0976 µM (input ligand: none).

For the sequence “GUCAUCACACAUGGGAUCAACAUGAGGAUCACCCAUGUUGCCAAGUUUUUUGCACGUCUUAUAAUACGUUUGAUGAG [Mod-Jxe] (Eterna round: R97, puzzle: Sensor, turn-off variant 1)”, the “apparent KD of MS2 coat protein” value by setting is: (input ligand: FMN 200 uM) 0.0317 µM; (input ligand: none) 0.0299 µM.

For the sequence “GUCAUGAUUGUGAGGAUAUUUCAUAGAUAGAUGUUAGAGAAGGUACAUGAGGAUCACCCAUGUGUGAUCAGACA [Brourd's EX4 #74] (Eterna round: R97, puzzle: Brourd's mod of Exclusion 4)”, the “apparent KD of MS2 coat protein” value was 0.336 µM (input ligand: FMN 200 uM) and 0.478 µM (input ligand: none).

In the case of “GUCCUACAUGAGGAUCACCCAUGUGAGGAUAUGGUUUCGCUGGCCGUAGCCAGUGGAACCAGAAGGCGCAUGAU [Mat - Exclusion 1 - JL Mod - D1] (Eterna round: R97, puzzle: Exclusion 1)”, the “apparent KD of MS2 coat protein” value runs as follows: (input ligand: FMN 200 uM) 0.106 µM; (input ligand: none) 0.0259 µM.

As to “GUCGCCAGUGUCAGGAUAUGAUGGCCUCGACGCCGUUAGAAGGGACAUGAGGAUCACCCAUGUAACAAGCGACG [Eternabot (Original) Solution 42] (Eterna round: R97, puzzle: Brourd's mod of Exclusion 4)”, the “apparent KD of MS2 coat protein” value amounted to 0.0313 µM (input ligand: FMN 200 uM) and 0.0278 µM (input ligand: none).

As for “GUCGCGUGGGUGUGGGAGGACAUGAGGAUCACCCAUGUGACUACCAAGCUUUUUGCUCCUCUUAGGUCCAUGGGAAG [Random] (Eterna round: R97, puzzle: Sensor, turn-off variant 1)”, the “apparent KD of MS2 coat protein” value came out at 0.067 µM (input ligand: FMN 200 uM) and 0.109 µM (input ligand: none).

As for “GUCGCUAGAGGAUAUACAAUGGUAUAUGAUCCUAGUGACAUACAUGAGGAUCACCCAUGUAGAAGGCUAGUAAU [Exclusion 2 - 7] (puzzle: Exclusion 2)”, the “apparent KD of MS2 coat protein” value under setting [1] worked out at 0.0248 µM.

For the sequence “GUCGUGCGGCAGUGCUGUACGAGUACAUGAGGAUCACCCAUGUAGGAUAUGGUUCGUUUUGCGUGCUAGAAGGGCGUGCGUUUU [Excl-NG3-LRO18] (Eterna round: R96, puzzle: Exclusion NG 3)”, the “apparent KD of MS2 coat protein” value reads like this: (input ligand: FMN 200 uM) 0.018 µM; under setting [2], 0.0158 µM; (input ligand: none) 0.0248 µM.

With “GUCGUGUUAGGAUAUGCAUGUGGACGAUGUUCUCCGCCGGUGUAGAAGGAACAUGAGGAUCACCCAUGUGCCUA [Eternabot (L1) Solution 79] (Eterna round: R97, puzzle: Exclusion 4)”, the “apparent KD of MS2 coat protein” value runs as follows: (input ligand: FMN 200 uM) 0.0456 µM; (input ligand: none) 0.0525 µM.

Regarding “GUCUACGCAGGAUAUAUCCCUCAGGACAUGAGGAUCACCCAUGUCUCCUUAUGCCUUCCCAUAGAAGGGCGUAGAA [Eternabot (L1) Solution 82] (Eterna round: R97, puzzle: Exclusion 5)”, the “apparent KD of MS2 coat protein” value reads like this: (input ligand: FMN 200 uM) 0.0126 µM; (input ligand: none) 0.0132 µM.

Regarding “GUCUCGUGAGGAUAUCAUGAUUGACUUAAUUUAUUUUAGCGUGAGAAGGCACAUGAGGAUCACCCAUGUGAUUC [Ex4 - 3 - 5] (puzzle: Exclusion 4)”, the “apparent KD of MS2 coat protein” value under setting [1] was 0.0171 µM.

“GUCUCGUGAGGAUAUGACGCUACUUUUUUGUUUUAGUAGAGUCAGAAGGCACAUGAGGAUCACCCAUGUGAUUC [Ex4 - 3 - 4] (puzzle: Exclusion 4)”: the “apparent KD of MS2 coat protein” value under setting [1] stood at 0.056 µM.

As for “GUCUGCACGCUGCGGUCCUACAUGAGGAUCACCCAUGUGGUCUGGUGGCGUGGGUCGCCGGACUUGGCUCGUCUUGA [salish99_S_TOV1_R5_045] (Eterna round: R97, puzzle: Sensor, turn-off variant 1)”, the “apparent KD of MS2 coat protein” value (input ligand: FMN 200 uM) came out at 0.0165 µM and the “apparent KD of MS2 coat protein” value (input ligand: none) amounted to 0.0159 µM.

In the case of “GUCUGCACGCUGCGGUCCUACAUGAGGAUCACCCAUGUGGUCUGGUGGCGUGGGUCGCCGGACUUGGCUCGUCUUGG [salish99_S_TOV1_R5_048] (Eterna round: R97, puzzle: Sensor, turn-off variant 1)”, the “apparent KD of MS2 coat protein” value is, setting by setting: (input ligand: FMN 200 uM) 0.0148 µM; (input ligand: none) 0.0147 µM.

Turning to “GUGAAACAUGAGGAUCACCCAUGUGAGGAUAUGAUACUAUGUACUUCGGUACAUAGUAUCAGAAGGCACAGUGA [Ex1-3: 6] (puzzle: Exclusion 1)”, the “apparent KD of MS2 coat protein” value under setting [1] was found to be 0.0654 µM.

As for “GUGAAACAUGAGGAUCACCCAUGUGAGGAUAUGAUUUAGUAAUGAUGAAAGUAAAUAUUCAGAAGGCACAAUGG [Mat - Mod of JL D71] (puzzle: Exclusion 1)”, the “apparent KD of MS2 coat protein” value by setting is: (Eterna round: R95, input ligand: FMN 200 uM) 0.0742 µM; under setting [1], 0.0927 µM; (Eterna round: R95, input ligand: none) 0.0902 µM.
